Experimental data as given in US20060052582.

B1: FLAG Nercc (Δ347-732) (protein)
chain: MDYKDDDDKMSVLGEYERHCDSINSDFGSESGGCGDSSPGPSASQGPRAGGGAAEQEELHYIPIRVLGRGAFGEATLYRRTEDDSLVVWKEVDLTRLSEKERRDALNEIVILALLQHDNIIAYYNHFMDNTTLLIELEYCNGGNLYDKILRQKDKLFEEEMVVWYLFQIVSAVSCIHKAGILHRDIKTLNIFLTKANLIKLGDYGLAKKLNSEYSMAETLVGTPYYMSPELCQGVKYNFKSDIWAVGCVIFELLTLKRTFDATNPLNLCVKIVQGIRAMEVDSSQYSLELIQMVHSCLDQDPEQRPTADELLDRPLLRKRRREMEEKVTLLNAPTKRPRSSTVTEAPIAVVTSRTIRSNSSGLSIGTVFQSSSPGGGGGGGGGEEEDSQQESETPDPSGGFRGTMEADRGMEGLISPTEAMGNSNGASSSCPGWLRKELENAEFIPMPDSPSPLSAAFSESEKDTLPYEELQGLKVASEAPLEHKPQVEASSPRLNPAVTCAGKGTPLTPPACACSSLQVEVERLQGLVLKCLAEQQKLQQENLQIFTQLQKLNKKLEGGQQVGMHSKGTQTAKEEMEMDPKPDLDSDSGCLLGTDSCRPSL
B2: FLAG Nercc (full-length wild type Nercc1 kinase with FLAG epitope tag) (protein)
chain: MDYKDDDDKMSVLGEYERHCDSINSDFGSESGGCGDSSPGPSASQGPRAGGGAAEQEELHYIPIRVLGRGAFGEATLYRRTEDDSLVVWKEVDLTRLSEKERRDALNEIVILALLQHDNIIAYYNHFMDNTTLLIELEYCNGGNLYDKILRQKDKLFEEEMVVWYLFQIVSAVSCIHKAGILHRDIKTLNIFLTKANLIKLGDYGLAKKLNSEYSMAETLVGTPYYMSPELCQGVKYNFKSDIWAVGCVIFELLTLKRTFDATNPLNLCVKIVQGIRAMEVDSSQYSLELIQMVHSCLDQDPEQRPTADELLDRPLLRKRRREMEEKVTLLNAPTKRPRSSTVTEAPIAVVTSRTSEVYIWGGGKSTPQKLDVIKSGCSARQVCAGNTHFAVVTVEKELYTWVNMQGGTKLHGQLGHGDKASYRQPKHVEKLQGKAIHQVSCGDDFTVCVTDEGQLYAFGSDYYGCMGVDKVAGPEVLEPMQLNFFLSNPVEQVSCGDNHVVVLTRNKEVYSWGCGEYGRLGLDSEEDYYTPQKVDVPKALIIVAVQCGCDGTFLLTQSGKVLACGLNEFNKLGLNQCMSGIINHEAYHEVPYTTSFTLAKQLSFYKIRTIAPGKTHTAAIDERGRLLTFGCNKCGQLGVGNYKKRLGINLLGGPLGGKQVIRVSCGDEFTIAATDDNHIFAWGNGGNGRLAMTPTERPHGSDICTSWPRPIFGSLHHVPDLSCRGWHTILIVEKVLNSKTIRSNSSGLSIGTVFQSSSPGGGGGGGGGEEEDSQQESETPDPSGGFRGTMEADRGMEGLISPTEAMGNSNGASSSCPGWLRKELENAEFIPMPDSPSPLSAAFSESEKDTLPYEELQGLKVASEAPLEHKPQVEASSPRLNPAVTCAGKGTPLTPPACACSSLQVEVERLQGLVLKCLAEQQKLQQENLQIFTQLQKLNKKLEGGQQVGMHSKGTQTAKEEMEMDPKPDLDSDSGCLLGTDSCRPSL

Experiments:
[1] = target: myc 6His Nek6 (Nek6 with carboxy terminal myc/6His epitopes)
[2] = target: GST Nek7, unphosphorylated (bacterial recombinant)
GST Nek7, unphosphorylated (bacterial recombinant), sequence (chain, as listed by the source): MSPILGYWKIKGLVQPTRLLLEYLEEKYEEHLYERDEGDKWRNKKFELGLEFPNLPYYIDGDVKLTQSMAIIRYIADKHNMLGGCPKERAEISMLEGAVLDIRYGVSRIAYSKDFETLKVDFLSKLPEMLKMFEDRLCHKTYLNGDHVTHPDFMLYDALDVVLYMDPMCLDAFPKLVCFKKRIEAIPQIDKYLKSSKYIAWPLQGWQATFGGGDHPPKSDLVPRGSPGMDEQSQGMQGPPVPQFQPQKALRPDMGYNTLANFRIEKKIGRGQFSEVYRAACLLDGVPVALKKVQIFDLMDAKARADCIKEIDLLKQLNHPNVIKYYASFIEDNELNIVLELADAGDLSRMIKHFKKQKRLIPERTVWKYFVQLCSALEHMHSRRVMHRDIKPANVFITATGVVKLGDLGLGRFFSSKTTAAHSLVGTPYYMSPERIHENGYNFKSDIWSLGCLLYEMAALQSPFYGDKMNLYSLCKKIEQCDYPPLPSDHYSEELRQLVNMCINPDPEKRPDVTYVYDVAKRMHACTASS

GST Nek6, sequence (chain, as listed by the source): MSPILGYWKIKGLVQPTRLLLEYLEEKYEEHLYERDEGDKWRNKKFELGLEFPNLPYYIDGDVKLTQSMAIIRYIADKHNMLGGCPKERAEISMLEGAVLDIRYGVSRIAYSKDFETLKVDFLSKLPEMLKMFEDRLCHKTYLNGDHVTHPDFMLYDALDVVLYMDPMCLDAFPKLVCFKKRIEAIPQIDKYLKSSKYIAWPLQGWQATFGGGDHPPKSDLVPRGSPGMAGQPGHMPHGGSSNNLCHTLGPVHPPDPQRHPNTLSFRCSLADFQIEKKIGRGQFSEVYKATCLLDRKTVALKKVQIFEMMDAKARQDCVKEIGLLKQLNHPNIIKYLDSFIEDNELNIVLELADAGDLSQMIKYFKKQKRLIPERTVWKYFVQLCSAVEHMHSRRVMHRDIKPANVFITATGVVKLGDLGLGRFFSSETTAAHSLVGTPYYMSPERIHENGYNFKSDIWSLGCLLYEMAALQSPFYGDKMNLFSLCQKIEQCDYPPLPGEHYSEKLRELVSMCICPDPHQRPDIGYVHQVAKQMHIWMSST
GST Nek6 (K74M/K75M), sequence (chain, as listed by the source K74M K75M): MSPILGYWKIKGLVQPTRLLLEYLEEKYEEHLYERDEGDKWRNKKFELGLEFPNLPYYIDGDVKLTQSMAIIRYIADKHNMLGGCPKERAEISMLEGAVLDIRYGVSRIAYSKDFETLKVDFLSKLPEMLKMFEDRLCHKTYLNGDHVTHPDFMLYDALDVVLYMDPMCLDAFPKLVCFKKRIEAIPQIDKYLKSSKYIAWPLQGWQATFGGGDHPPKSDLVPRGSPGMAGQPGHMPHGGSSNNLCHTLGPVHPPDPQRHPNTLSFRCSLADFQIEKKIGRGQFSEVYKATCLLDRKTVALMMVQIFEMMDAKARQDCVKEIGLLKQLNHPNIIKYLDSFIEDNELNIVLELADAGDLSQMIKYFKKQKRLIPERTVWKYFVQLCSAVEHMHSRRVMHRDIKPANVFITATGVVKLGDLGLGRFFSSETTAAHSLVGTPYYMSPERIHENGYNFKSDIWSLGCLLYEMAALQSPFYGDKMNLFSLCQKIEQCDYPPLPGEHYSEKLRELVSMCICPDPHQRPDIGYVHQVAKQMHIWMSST
myc 6His Nek6 (Nek6 with carboxy terminal myc/6His epitopes), sequence (chain, as listed by the source): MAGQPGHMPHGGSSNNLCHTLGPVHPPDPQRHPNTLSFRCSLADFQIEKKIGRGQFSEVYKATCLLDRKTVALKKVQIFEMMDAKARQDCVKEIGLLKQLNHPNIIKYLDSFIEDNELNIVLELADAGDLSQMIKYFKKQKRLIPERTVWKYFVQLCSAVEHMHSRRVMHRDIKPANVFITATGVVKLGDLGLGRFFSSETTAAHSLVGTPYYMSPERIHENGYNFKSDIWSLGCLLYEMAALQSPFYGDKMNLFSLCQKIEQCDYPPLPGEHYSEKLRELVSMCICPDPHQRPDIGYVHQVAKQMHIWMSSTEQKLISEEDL

| Protein | specific activity of coexpressed Nek6 [1] | Nek6/7 kinase activity (32P into GST Cdc16 Ct) (GST Nek6) | Nek6/7 kinase activity (32P into GST Cdc16 Ct) [2] | phosphorylation of Nek6 (K74M/K75M) at Ser206 in vitro (GST Nek6 (K74M/K75M)) |
| --- | --- | --- | --- | --- |
| B1 | a two-fold increase in the specific activity of coexpressed Nek6 | – | – | – |
| B2 | – | 20-25 fold activation of Nek6/7 kinase activity | 20-25 fold activation of Nek6/7 kinase activity | This modification occurred, however, with a rather low efficiency |
